From PMC2898433

Biological target: GST-Kar2p (S. cerevisiae) (UniProt P16474)
Experiment: pull-down

B1: His-Sil1p (natural protein)
chain: TILHSSIHSVPSGGEIISAEDLKELEISGNSICVDNRCYPKIFEPRHDWQPILPGQELPGGLDIRINMDTGLKEAKLNDEKNVGDNGSHELIVSSEDMKASPGDYEFSSDFKEMRNIIDSNPTLSSQDIARLEDSFDRIMEFAHDYKHGYKIITHEFALLANLSLNENLPLTLRELSTRVITSCLRNNPPVVEFINESFPNFKSKIMAALSNLNDSNHRSSNILIKRYLSILNELPVTSEDLPIYSTVVLQNVYERNNKDKQLQIKVLELISKILKADMYENDDTNLILFKRNAENWSSNLQEWANEFQEMVQNKSIDELHTRTFFDTLYNLKKIFKSDITINKGFLNWLAQQCKARQSNLDNGLQERDTEQDSFDKKLIDSRHLIFG
Q: With B1 as the binder, how does the reduction of binding in the presence of ATP read?
A: 50%
